Measured values reported in publication PMC3873296, “Crystal Structures and Molecular Dynamics Simulations of Thermophilic Malate Dehydrogenase Reveal Critical Loop Motion for Co-Substrate Binding” (PLoS ONE, 2013).

Columns and labels:
[1] = target: T1, TtMDH (malate dehydrogenase from Thermus thermophilus) (Thermus thermophilus, UniProt P10584); assay: isothermal titration calorimetry; format: binding
T1 construct: gene mdh
T1 sequence (P10584 1-327): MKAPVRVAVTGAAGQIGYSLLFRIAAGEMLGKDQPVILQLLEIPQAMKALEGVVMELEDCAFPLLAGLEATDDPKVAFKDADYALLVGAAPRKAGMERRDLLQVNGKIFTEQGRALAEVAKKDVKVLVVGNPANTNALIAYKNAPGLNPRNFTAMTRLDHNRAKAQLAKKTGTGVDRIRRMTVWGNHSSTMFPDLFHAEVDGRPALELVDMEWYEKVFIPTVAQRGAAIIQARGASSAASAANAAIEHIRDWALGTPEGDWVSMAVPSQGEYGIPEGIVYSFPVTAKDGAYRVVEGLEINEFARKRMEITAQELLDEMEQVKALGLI
Excerpt: isothermal titration calorimetry on TtMDH (malate dehydrogenase from Thermus thermophilus)

[2] = target: T1, TtMDH (malate dehydrogenase from Thermus thermophilus); assay: X-ray crystal structure, […] Å; format: binding; conditions: apo crystal soaked with 2 mM NAD for about 30 min
[3] = target: the molecule itself; assay: SEC; analytical gel filtration on Superdex 200 HR; 0.1 ml TtMDH at 8.8 mg/ml; elution compared with high-molecular-weight standards; estimated mass 61 kDa against 37 kDa for the subunit
purified protein = substrate: O=C(O)CC(=O)C(=O)O; assay: purified protein; format: biochemical, Thermus thermophilus; conditions: 0.15 mM NADH, 100 mM glycine-NaOH pH 10.0, 37 °C

Molecule: NC(=O)C1=CN([C@@H]2O[C@H](COP(=O)(O)OP(=O)(O)OC[C@H]3O[C@@H](n4cnc5c(N)ncnc54)[C@H](O)[C@@H]3O)[C@@H](O)[C@H]2O)C=CC1 [NADH]
- Kd [1]: 1.16 µM

Molecule: NC(=O)c1ccc[n+]([C@@H]2O[C@H](COP(=O)(O)OP(=O)(O)OC[C@H]3O[C@@H](n4cnc5c(N)ncnc54)[C@H](O)[C@@H]3O)[C@@H](O)[C@H]2O)c1 [NAD]
- X-ray crystal structure, 2.36 Å [2]: co-substrate binding site of TtMDH that could be modeled as NAD

B1: Malate dehydrogenase from Thermus thermophilus (enzyme, UniProt P61977 1-327, looked up)
chain: MKAPVRVAVTGAAGQIGYSLLFRIAAGEMLGKDQPVILQLLEIPQAMKALEGVVMELEDCAFPLLAGLEATDDPKVAFKDADYALLVGAAPRKAGMERRDLLQVNGKIFTEQGRALAEVAKKDVKVLVVGNPANTNALIAYKNAPGLNPRNFTAMTRLDHNRAKAQLAKKTGTGVDRIRRMTVWGNHSSTMFPDLFHAEVDGRPALELVDMEWYEKVFIPTVAQRGAAIIQARGASSAASAANAAIEHIRDWALGTPEGDWVSMAVPSQGEYGIPEGIVYSFPVTAKDGAYRVVEGLEINEFARKRMEITAQELLDEMEQVKALGLI
notes: Malate dehydrogenase (EC 1.1.1.37) of Thermus thermophilus; calculated mass of the recombinant protein 36874.48 Da; also called TtMDH; MDH; source: E. coli BL21(DE3), purified (heat incubation at 70°C, Ni2+-NTA, Superdex 200 HR gel filtration)
- stoichiometry N [3]: 2
- Km (purified protein): 168.1 µM
- kcat (purified protein): 281.6 s⁻¹
